Legend:
[1] = biological target: T1, Human serum albumin (HSA) (human, UniProt P02768 25-609); experiment: affinity as cited in the structural example (SPR)
T1 construct: In SPR the HSA was immobilised on a CM5 chip

[2] = biological target: T1, Human serum albumin (HSA); experiment: SPR (Biacore 3000), HSA immobilised on CM5 chip, Nb as analyte
Protocol: Nb Affinity measurement by surface plasmon resonance (SPR) Surface plasmon resonance (SPR, Biacore 3000 system, GE Healthcare) was used to measure Nb affinities. Briefly, a protein antigen such as GST, OMP25 PDZ domain or human serum albumin was immobilized to the flow channels of an activated CM5 sensor-chip. Protein analytes were diluted to 10-30 µg/ml in 10 mM sodium acetate, pH 4.5, and injected into the SPR system at 5 µl/min for 420 s. The surface was then blocked by 1 M ethanolamine-HCl (pH 8.5). For each Nb analyte, a series of dilution spanning approximately 1,000 fold was injected in duplicate, with HBS-EP+ running buffer (GE-Healthcare) containing 2 mM DTT, at a flow rate of 20- 30 µl/min for 120- 180 s, followed by a dissociation time of 5 - 20 mins based on dissociation rate. Between each injection, the sensor chip surface was regenerated with low pH buffer containing 10 mM glycine-HCl (pH 1.5- 2.5) at a flow rate of 40-50 µl/min for 30 s, or high pH buffer of 20-40 mM NaOH (pH 12- 13) at 40-50 µl/min for 30 s. Binding sensorgrams for each Nb were processed and analyzed using BIA evaluation by fitting with 1:1 Langmuir model or 1:1 Langmuir model with mass transfer.

T1 sequence (P02768 25-609 limits assumed, form in doubt): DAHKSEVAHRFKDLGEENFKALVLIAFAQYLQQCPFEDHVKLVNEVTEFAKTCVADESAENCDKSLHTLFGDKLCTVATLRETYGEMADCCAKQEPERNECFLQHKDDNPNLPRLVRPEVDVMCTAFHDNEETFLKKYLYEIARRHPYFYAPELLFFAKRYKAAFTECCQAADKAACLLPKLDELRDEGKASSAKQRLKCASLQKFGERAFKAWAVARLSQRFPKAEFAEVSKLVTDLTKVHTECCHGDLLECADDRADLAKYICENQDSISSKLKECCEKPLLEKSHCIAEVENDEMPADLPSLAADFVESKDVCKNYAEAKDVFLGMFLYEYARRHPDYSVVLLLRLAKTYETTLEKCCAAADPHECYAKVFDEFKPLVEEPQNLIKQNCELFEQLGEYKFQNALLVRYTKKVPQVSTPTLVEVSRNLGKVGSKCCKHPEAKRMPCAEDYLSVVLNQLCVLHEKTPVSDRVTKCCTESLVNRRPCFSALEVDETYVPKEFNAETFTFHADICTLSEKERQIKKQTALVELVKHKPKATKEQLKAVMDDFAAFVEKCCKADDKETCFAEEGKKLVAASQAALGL

B1: Nb80 (VHH)
VHH: EVQLVESGGGLVQAGGSLRLSCTASGRTFTPYTMGWFRQAPGKEREFVASILWSGNNRDYADSVKGRFAISRDNAKNTAYLQMTSLKPEDTAVYYCAAGDGLGFYRSVNQYDYWGQGTQVTVS
notes: His-tagged nanobody from E. coli
Kd [1]: 0.16 nM | Kd [2]: 0.166 nM | koff [2]: 2.75e-05 s⁻¹ | kon [2]: 166000 M⁻¹ s⁻¹

— US20230212270A1 (UNIVERSITY OF PITTSBURGH OF THE COMMONWEALTH SYSTEM OF …, published 2023)
